Key:
[1] = molecular target: T1, p204 HINab (Mus musculus, UniProt P0DOV2 216-619); assay: X-ray crystallography
T1 sequence: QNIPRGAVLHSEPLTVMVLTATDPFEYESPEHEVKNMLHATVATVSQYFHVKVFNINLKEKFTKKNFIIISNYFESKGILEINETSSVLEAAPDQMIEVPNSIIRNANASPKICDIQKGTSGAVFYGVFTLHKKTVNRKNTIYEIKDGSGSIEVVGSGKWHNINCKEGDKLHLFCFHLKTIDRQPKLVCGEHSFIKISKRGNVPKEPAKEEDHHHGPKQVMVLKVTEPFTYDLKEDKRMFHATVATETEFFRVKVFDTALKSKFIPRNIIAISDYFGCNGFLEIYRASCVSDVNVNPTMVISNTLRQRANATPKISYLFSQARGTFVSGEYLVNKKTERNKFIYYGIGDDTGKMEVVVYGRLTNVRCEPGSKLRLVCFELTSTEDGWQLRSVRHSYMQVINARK

[2] = molecular target: T1, p204 HINab; assay: fluorescence polarization
[3] = molecular target: T2, p204 HINa (Mus musculus, UniProt P0DOV2 216-417); assay: fluorescence polarization
T2 sequence: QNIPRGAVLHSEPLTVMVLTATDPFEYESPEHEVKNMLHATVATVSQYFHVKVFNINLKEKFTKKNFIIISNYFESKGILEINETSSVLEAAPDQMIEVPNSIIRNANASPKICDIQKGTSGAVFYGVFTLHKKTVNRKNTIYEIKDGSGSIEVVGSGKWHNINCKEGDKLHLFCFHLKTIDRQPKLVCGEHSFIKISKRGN

[4] = molecular target: T3, p204 HINb (Mus musculus, UniProt P0DOV2 427-619); assay: fluorescence polarization
T3 sequence: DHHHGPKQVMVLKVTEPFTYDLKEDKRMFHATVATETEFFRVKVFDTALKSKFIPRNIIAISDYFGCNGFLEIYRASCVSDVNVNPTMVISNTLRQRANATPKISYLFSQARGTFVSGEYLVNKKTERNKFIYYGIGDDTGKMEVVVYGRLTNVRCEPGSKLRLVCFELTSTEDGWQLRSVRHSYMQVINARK

B1: 16 mer dsDNA (crystal) (dsDNA)
DNA 1: CCATCAGAAAGAGAGC
DNA 2: GCTCTCTTTCTGATGG
binding result [1]: binds

B2: 30 mer dsDNA (dsDNA)
DNA 1: CCATCAGAAAGAGGTTTAATATTTTTGTGA
DNA 2: TCACAAAAATATTAAACCTCTTTCTGATGG
Kd [2]: 13.5 ± 2.39 µM | Kd [3]: 193 ± 77 µM | Kd [4]: 157 ± 37.2 µM

B3: 20 mer dsDNA (dsDNA)
DNA 1: TAAGACACGATGCGATAAAA
DNA 2: TTTTATCGCATCGTGTCTTA
Kd [2]: 156 ± 37.5 µM

From article PMC7969034
